In PMC314469, “Protein Interaction Networks by Proteome Peptide Scanning” (PLoS Biology, 2004):

Biological target: T1, Abp1 SH3 (ABP1_YEAST), P15891
T1 chain: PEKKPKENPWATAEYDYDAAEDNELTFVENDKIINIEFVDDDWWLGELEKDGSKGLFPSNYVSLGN
Test: SPOT array

Binder | normalised SPOT signal, Boehringer light units (BLU); mean over the file's lines of this peptide
IFLNYEWPQWLRP [YOR336W 1160-1172] | 163
HTMTSPPPVFNKP [YDL195W 1091-1103] | 1200
IDLVKHSPGAIKP [YHL030W 1303-1315] | 84.8
HKSNVRQISNPKKP [YGL023C 320-333] | 98.3
IGLFGKDLSKPGRP [YBR243C 53-66] | 150
HPEYTSKVLEPSRP [YJR103W 537-550] | 91.6
IFPPIDDPLPFKP [YDR284C 246-258] | 62
IEFKDVSFSYPTRP [YPL270W 493-506] | 89
HKVKERDPNMPKRP [YDL002C 84-97] | 156
GYRKAALKYHPDKP [YNL007C 25-38] | 172
HPEYTSKVLDPSKP [YBL039C 535-548] | 69.3
HDKDVIVPNVWRP [YEL036C 221-233] | 123
IAHFNYLPPTIRP [YKR099W 624-636] | 197
IGNDRASPTNKKP [YGR097W 338-350] | 420
GYFFHDPKFIPNKP [YGR019W 332-345] | 174
HSYRQLAPTHHRP [YFL015C 82-94] | 703
IDFFLALFSDPARP [YHL005C 58-71] | 21.9
IGRNIVKVVYPDKP [YJL025W 348-361] | 105
HLYSMDPPLDRKP [YGL131C 343-355] | 172
HHHHHNRGSTPTKP [YDL025C 257-270] | 257

Binder | normalised SPOT signal, Boehringer light units (BLU); mean over the file's lines of this peptide
HVDEDGEPIDIKP [YLR429W 120-132] | 202
IESLTTIMRIPSKP [YBR250W 264-277] | 204
IATSADYIFIPEKP [YMR205C 403-416] | 90.5
HSAATALPALRRP [YLR162W 19-31] | 80.8
HEESNNYVEIPKKP [YHR092C 51-64] | 137
HKNFFSQPDINRP [YMR100W 263-275] | 85.4
HITSHLRVHVPLKP [YHL027W 198-211] | 285
HLSLTAVPSFLRP [YJR090C 735-747] | 62.7
HVNLDKGKHVPSKP [YKL054C 142-155] | 105
HLNNSDIHSQPNKP [YOR329C 803-816] | 87.4
GYDVKVTPWEKRP [Q0055 610-622] | 139
IFLNRKKPALFRP [YNL230C 281-293] | 2850
HMTHNRKPAEPTKP [YML075C 1020-1033] | 2090
HNTSSSIPKISRP [YGR014W 1282-1294] | 765
IERQRLSMVTPSKP [YCL063W 140-153] | 2630
HLIAPLAGAVPTKP [YLR153C 435-448] | 131
HYAKNRTPGVMKP [YLR244C 308-320] | 419
HIGDMYGSVTPLRP [YHL002W 323-336] | 122
HTDDLPEGIRPFKP [YLR090W 428-441] | 61
HSAIQSLSFHPSKP [YJL069C 248-261] | 194

Binder | normalised SPOT signal, Boehringer light units (BLU); mean over the file's lines of this peptide
HASLLVRDSKPSKP [YBR193C 182-195] | 91.3
HVPIVKRNKYPPRP [YDR195W 518-531] | 267
IAVGLDALNIPHKP [YHR033W 54-67] | 142
HGLPRNADSQPARP [YIR013C 32-45] | 154
HYPPGYDPTDPNRP [YER166W 1422-1435] | 176
IEKTKDILSIPPKP [YOR219C 489-502] | 63.2
IFYSLIYPYLIKP [YIL067C 132-144] | 90.9
IAIEREEDSIPSRP [YMR221C 251-264] | 99.1
HLFPPSSPVAGKP [YDR501W 3-15] | 69.7
IAVISVLPNFKKP [YBL004W 947-959] | 29
HADSVADPRSSRP [YOL085C 38-50] | 107
IDRIPPPTGRPDKP [YLR289W 221-234] | 118
HGTLTFPSDYPYKP [YER100W 55-68] | 124
HYDVDANIMPPPKP [YBR108W 510-523] | 108
IDIPVRQPYSKKP [YDR422C 269-281] | 639
HTEQNNPPKPQKP [YOR290C 412-424] | 129
HHNIDIDPLPRRP [YLR299W 81-93] | 55.3
IDILGLAELAPGKP [YLR304C 721-734] | 124
